# Reference: publication PMC5361195
# B1: Flag-tagged wild-type A2 domain of coagulation factor VIII (pED-Flag-A2) [human] / calreticulin [not stated (endogenous in COS-1 or HEK293T cells)] (parent)
# chain 1: KTWVHYIAAEEEDWDYAPLVLAPDDRSYKSQYLNNGPQRIGRKYKKVRFMAYTDETFKTREAIQHESGILGPLLYGEVGDTLLIIFKNQASRPYNIYPHGITDVRPLYSRRLPKGVKHLKDFPILPGEIFKYKWTVTVEDGPTKSDPRCLTRYYSSFVNMERDLASGLIGPLLICYKESVDQRGNQIMSDKRNVILFSVFDENRSWYLTENIQRFLPNPAGVQLEDPEFQASNIMHSINGYVFDSLQLSVCLHEVAYWYILSIGAQTDFLSVFFSGYTFKHKMVYEDTLTLFPFSGETVFMSMENPGLWILGCHNSDFRNRGMTALLKVSSC
# chain 2: EPAVYFKEQFLDGDGWTSRWIESKHKSDFGKFVLSSGKFYGDEEKDKGLQTSQDARFYALSASFEPFSNKGQTLVVQFTVKHEQNIDCGGGYVKLFPNSLDQTDMHGDSEYNIMFGPDICGPGTKKVHVIFNYKGKNVLINKDIRCKDDEFTHLYTLIVRPDNTYEVKIDNSQVESGSLEDDWDFLPPKKIKDPDASKPEDWDERAKIDDPTDSKPEDWDKPEHIPDPDAKKPEDWDEEMDGEWEPPVIQNPEYKGEWKPRQIDNPDYKGTWIHPEIDNPEYSPDPSIYAYDNFGVLGLDLWQVKSGTIFDNFLITNDEAYAEEFGNETWGVTKAAEKQMKDKQDEEQRLKEEEEDKKRKEEEEAEDKEDDEDKDEDEEDEEDKEEDEEEDVPGQAKDEL
# Variants of: B1
# Test: co-immunoprecipitation (anti-Flag IP, immunoblot densitometry)
# Details: with calreticulin [not stated (endogenous in COS-1 or HEK293T cells)]; 36 h after transfection; n = 3; parent: 1; read off a plot
row,Variant,ratio to parent
1,chain 1 D201V,1.1
2,chain 1 D201H,2.2
3,chain 1 N203D,0.92
4,chain 1 S205T,2.3
